The values below come from article doi:10.1101/2025.03.12.642377 (bioRxiv, 2025).

For the test, the target named is PACRG-mNeonGreen-6xHis (C. reinhardtii, UniProt B1B601 1-307). Kind of test: pull-down.

B1: FAP20-mRuby3 (His-tag cleaved) (natural protein, C. reinhardtii, UniProt A8IU92 1-190, looked up)
chain: MFKNAFQSGFLSVLYSIGSKPLEIWDKQVSNGHIKRITDADIQSSVLEIMGQNVSTTYITCPADPNKTLGIKLPFLVLIIKNLNKYFSFEVQVLDDKNVRRRFRASNYQSTTRVKPFICTMPMRLDSGWNQIQFNLSDFTRRAYGTNYIETLRVQVHANCRIRRIYFSDRLYSEEELPAEFKLFLPIQKS
On to B1, for which the binding result is given as “binds”.
